Values quoted from earlier work as cited in article PMC3433420.
Like-named read-outs stand apart in the source and are kept apart here.

How the values were obtained:
Settings in all cases: cited from earlier work
PIK3R3-C (Homo sapiens) = PIK3R3-C (Homo sapiens) (UniProt Q92569)
PIK3R1-NC (Homo sapiens) [1] = target: PIK3R1-NC (Homo sapiens) (UniProt P27986)
SHF (Homo sapiens) = SHF (Homo sapiens) (UniProt Q7M4L6)
ABL2 (Homo sapiens) [2] = target: ABL2 (Homo sapiens) (UniProt P42684)
SHB (Homo sapiens) = SHB (Homo sapiens) (UniProt Q15464)
SYK-C (Homo sapiens) = SYK-C (Homo sapiens) (UniProt P43405)
PIK3R3-N (Homo sapiens) [3] = target: PIK3R3-N (Homo sapiens) (UniProt Q92569)
PIK3R1-NC (Homo sapiens) [4] = target: PIK3R1-NC (Homo sapiens) (UniProt P27986); remark: listed apart in the source
ABL2 (Homo sapiens) [5] = target: ABL2 (Homo sapiens) (UniProt P42684); remark: listed apart in the source
PIK3R1-N (Homo sapiens) [6] = target: PIK3R1-N (Homo sapiens) (UniProt P27986)
PIK3R3-N (Homo sapiens) [7] = target: PIK3R3-N (Homo sapiens) (UniProt Q92569); remark: listed apart in the source
PIK3R1-C (Homo sapiens) = PIK3R1-C (Homo sapiens) (UniProt P27986)
SHC1-PTB (Homo sapiens) = SHC1-PTB (Homo sapiens) (UniProt P29353)
PIK3R3-NC (Homo sapiens) [8] = target: PIK3R3-NC (Homo sapiens) (UniProt Q92569)
PIK3R2-NC (Homo sapiens) [9] = target: PIK3R2-NC (Homo sapiens) (UniProt O00459)
ITK (Homo sapiens) [10] = target: ITK (Homo sapiens) (UniProt Q08881)
PIK3R2-N (Homo sapiens) [11] = target: PIK3R2-N (Homo sapiens) (UniProt O00459)
PIK3R3-NC (Homo sapiens) [12] = target: PIK3R3-NC (Homo sapiens) (UniProt Q92569); remark: listed apart in the source
PIK3R2-N (Homo sapiens) [13] = target: PIK3R2-N (Homo sapiens) (UniProt O00459); remark: listed apart in the source
ITK (Homo sapiens) [14] = target: ITK (Homo sapiens) (UniProt Q08881); remark: listed apart in the source
PIK3R1-N (Homo sapiens) [15] = target: PIK3R1-N (Homo sapiens) (UniProt P27986); remark: listed apart in the source
SYK-NC (Homo sapiens) [16] = target: SYK-NC (Homo sapiens) (UniProt P43405)
SRC (Homo sapiens) = SRC (Homo sapiens) (UniProt P12931)
PIK3R3-NC (Homo sapiens) [17] = target: PIK3R3-NC (Homo sapiens) (UniProt Q92569); remark: listed apart in the source
TENC1 (Homo sapiens) [18] = target: TENC1 (Homo sapiens) (UniProt Q63HR2)
RASA1-N (Homo sapiens) [19] = target: RASA1-N (Homo sapiens) (UniProt P20936)
FGR (Homo sapiens) = FGR (Homo sapiens) (UniProt P09769)
LYN (Homo sapiens) = LYN (Homo sapiens) (UniProt P07948)
ABL2 (Homo sapiens) [20] = target: ABL2 (Homo sapiens) (UniProt P42684); remark: listed apart in the source
GRB7 (Homo sapiens) [21] = target: GRB7 (Homo sapiens) (UniProt Q14451)
YES1 (Homo sapiens) = YES1 (Homo sapiens) (UniProt P07947)
PIK3R2-NC (Homo sapiens) [22] = target: PIK3R2-NC (Homo sapiens) (UniProt O00459); remark: listed apart in the source
ABL1 (Homo sapiens) = ABL1 (Homo sapiens) (UniProt P00519)
PIK3R1-NC (Homo sapiens) [23] = target: PIK3R1-NC (Homo sapiens) (UniProt P27986); remark: listed apart in the source
PIK3R2-N (Homo sapiens) [24] = target: PIK3R2-N (Homo sapiens) (UniProt O00459); remark: listed apart in the source
RASA1-N (Homo sapiens) [25] = target: RASA1-N (Homo sapiens) (UniProt P20936); remark: listed apart in the source
PIK3R1-N (Homo sapiens) [26] = target: PIK3R1-N (Homo sapiens) (UniProt P27986); remark: listed apart in the source
PIK3R3-N (Homo sapiens) [27] = target: PIK3R3-N (Homo sapiens) (UniProt Q92569); remark: listed apart in the source
PIK3R1-NC (Homo sapiens) [28] = target: PIK3R1-NC (Homo sapiens) (UniProt P27986); remark: listed apart in the source
SYK-NC (Homo sapiens) [29] = target: SYK-NC (Homo sapiens) (UniProt P43405); remark: listed apart in the source
PIK3R3-N (Homo sapiens) [30] = target: PIK3R3-N (Homo sapiens) (UniProt Q92569); remark: listed apart in the source
GRB7 (Homo sapiens) [31] = target: GRB7 (Homo sapiens) (UniProt Q14451); remark: listed apart in the source
TENC1 (Homo sapiens) [32] = target: TENC1 (Homo sapiens) (UniProt Q63HR2); remark: listed apart in the source
PIK3R3-NC (Homo sapiens) [33] = target: PIK3R3-NC (Homo sapiens) (UniProt Q92569); remark: listed apart in the source
BLK (Homo sapiens) = BLK (Homo sapiens) (UniProt P51451)
PLCG2-NC (Homo sapiens) = PLCG2-NC (Homo sapiens) (UniProt P16885)
PIK3R2-NC (Homo sapiens) [34] = target: PIK3R2-NC (Homo sapiens) (UniProt O00459); remark: listed apart in the source
PIK3R2-N (Homo sapiens) [35] = target: PIK3R2-N (Homo sapiens) (UniProt O00459); remark: listed apart in the source

Sequence of ABL2 (Homo sapiens) (P42684 168-268): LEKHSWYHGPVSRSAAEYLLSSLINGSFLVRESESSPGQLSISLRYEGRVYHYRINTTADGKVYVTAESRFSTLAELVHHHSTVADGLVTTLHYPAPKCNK
Sequence of PIK3R2-N (Homo sapiens) (O00459 325-721): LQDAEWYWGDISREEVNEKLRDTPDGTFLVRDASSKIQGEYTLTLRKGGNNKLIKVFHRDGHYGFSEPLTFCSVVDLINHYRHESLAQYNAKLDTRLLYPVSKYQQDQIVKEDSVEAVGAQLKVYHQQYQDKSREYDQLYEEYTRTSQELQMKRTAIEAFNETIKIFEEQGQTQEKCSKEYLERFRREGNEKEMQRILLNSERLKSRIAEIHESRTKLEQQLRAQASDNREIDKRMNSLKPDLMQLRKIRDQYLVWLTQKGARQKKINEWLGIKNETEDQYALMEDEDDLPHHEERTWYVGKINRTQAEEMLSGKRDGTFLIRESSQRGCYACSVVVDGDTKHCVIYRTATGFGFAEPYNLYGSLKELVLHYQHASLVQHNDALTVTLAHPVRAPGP
Sequence of PIK3R2-NC (Homo sapiens) (O00459 325-721): as above
Sequence of PIK3R1-NC (Homo sapiens) (P27986 328-723): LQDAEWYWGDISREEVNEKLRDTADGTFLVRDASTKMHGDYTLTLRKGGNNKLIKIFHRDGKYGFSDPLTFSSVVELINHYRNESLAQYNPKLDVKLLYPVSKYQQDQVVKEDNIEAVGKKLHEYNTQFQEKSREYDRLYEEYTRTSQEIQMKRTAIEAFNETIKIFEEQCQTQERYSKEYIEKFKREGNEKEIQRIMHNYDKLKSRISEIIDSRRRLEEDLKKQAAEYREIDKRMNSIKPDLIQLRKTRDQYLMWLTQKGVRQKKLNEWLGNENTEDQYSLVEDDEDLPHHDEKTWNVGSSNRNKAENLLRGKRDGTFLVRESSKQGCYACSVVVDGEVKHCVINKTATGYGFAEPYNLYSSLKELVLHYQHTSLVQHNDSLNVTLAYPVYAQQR
Sequence of PIK3R1-N (Homo sapiens) (P27986 328-723): as above
Sequence of RASA1-N (Homo sapiens) (P20936 176-446): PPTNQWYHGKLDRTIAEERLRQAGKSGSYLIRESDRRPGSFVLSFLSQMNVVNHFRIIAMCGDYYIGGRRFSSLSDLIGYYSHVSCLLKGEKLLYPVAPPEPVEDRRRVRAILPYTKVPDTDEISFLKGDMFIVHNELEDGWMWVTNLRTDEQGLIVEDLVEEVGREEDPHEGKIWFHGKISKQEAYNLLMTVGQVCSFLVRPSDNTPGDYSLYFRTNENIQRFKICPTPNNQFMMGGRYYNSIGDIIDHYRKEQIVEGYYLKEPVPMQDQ
Sequence of TENC1 (Homo sapiens) (Q63HR2 1135-1252): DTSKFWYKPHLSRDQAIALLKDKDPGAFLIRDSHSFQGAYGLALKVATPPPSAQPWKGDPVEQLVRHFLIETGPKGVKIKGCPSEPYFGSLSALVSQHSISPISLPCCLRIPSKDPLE
Sequence of ITK (Homo sapiens) (Q08881 234-343): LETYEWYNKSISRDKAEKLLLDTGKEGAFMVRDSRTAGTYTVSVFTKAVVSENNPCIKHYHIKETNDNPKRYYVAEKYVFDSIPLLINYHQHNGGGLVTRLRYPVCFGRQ
Sequence of GRB7 (Homo sapiens) (Q14451 426-532): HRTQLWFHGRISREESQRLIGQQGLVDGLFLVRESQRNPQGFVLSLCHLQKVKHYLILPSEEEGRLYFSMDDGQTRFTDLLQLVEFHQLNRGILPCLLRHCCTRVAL
Sequence of SHF (Homo sapiens) (Q7M4L6 318-423): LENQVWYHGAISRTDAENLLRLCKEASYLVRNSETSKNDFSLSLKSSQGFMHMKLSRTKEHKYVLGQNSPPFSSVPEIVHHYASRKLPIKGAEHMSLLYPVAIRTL
Sequence of BLK (Homo sapiens) (P51451 119-225): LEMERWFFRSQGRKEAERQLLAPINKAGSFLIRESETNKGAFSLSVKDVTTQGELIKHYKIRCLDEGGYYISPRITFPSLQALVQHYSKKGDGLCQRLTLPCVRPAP
Sequence of SHC1-PTB (Homo sapiens) (P29353 483-583): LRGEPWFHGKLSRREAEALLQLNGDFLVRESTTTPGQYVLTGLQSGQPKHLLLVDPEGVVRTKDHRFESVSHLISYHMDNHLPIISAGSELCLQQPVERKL
Sequence of SHB (Homo sapiens) (Q15464 405-509): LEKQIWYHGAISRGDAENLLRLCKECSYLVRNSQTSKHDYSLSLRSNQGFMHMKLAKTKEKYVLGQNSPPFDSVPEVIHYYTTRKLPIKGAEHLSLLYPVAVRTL
Sequence of PLCG2-NC (Homo sapiens) (P16885 527-740): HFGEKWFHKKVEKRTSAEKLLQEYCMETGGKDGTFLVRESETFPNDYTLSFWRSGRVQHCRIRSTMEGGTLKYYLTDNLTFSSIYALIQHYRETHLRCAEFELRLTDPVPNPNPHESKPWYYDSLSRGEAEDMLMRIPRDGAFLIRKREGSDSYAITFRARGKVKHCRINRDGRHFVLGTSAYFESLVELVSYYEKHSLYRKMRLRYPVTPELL
Sequence of YES1 (Homo sapiens) (P07947 153-260): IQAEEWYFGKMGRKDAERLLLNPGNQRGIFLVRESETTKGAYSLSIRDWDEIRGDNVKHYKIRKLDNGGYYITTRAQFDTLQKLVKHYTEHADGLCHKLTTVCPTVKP
Sequence of LYN (Homo sapiens) (P07948 124-231): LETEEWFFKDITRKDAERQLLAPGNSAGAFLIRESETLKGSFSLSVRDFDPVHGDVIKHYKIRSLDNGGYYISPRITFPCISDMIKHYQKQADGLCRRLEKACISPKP
Sequence of PIK3R1-C (Homo sapiens) (P27986 328-723): as the sequence (P27986 328-723) above
Sequence of ABL1 (Homo sapiens) (P00519 122-222): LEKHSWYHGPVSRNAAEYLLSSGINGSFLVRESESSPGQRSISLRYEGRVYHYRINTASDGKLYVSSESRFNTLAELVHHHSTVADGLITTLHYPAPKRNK

Q: Which apparent Kd (screen) (PIK3R3-C (Homo sapiens)) does the source give for …pYMPMNQGN here?
A: 109 nM

Q: And the apparent Kd (screen) (PIK3R1-NC (Homo sapiens) [1])?
A: 920 nM

Q: And the apparent Kd (screen) (SHF (Homo sapiens))?
A: 1230 nM

Q: And the apparent Kd (screen) (ABL2 (Homo sapiens) [2])?
A: 167 nM

Q: What about the apparent Kd (screen) (SHB (Homo sapiens)) of the same substance?
A: 1370 nM

Q: What about the apparent Kd (screen) (SYK-C (Homo sapiens)) of the same substance?
A: 1180 nM

Q: What about the apparent Kd (screen) (PIK3R3-N (Homo sapiens) [3]) of the same substance?
A: 1320 nM

Q: What about the apparent Kd (screen) (PIK3R1-NC (Homo sapiens) [4]) of the same substance?
A: 105 nM

Q: And the apparent Kd (screen) (ABL2 (Homo sapiens) [5])?
A: 331 nM

Q: And the apparent Kd (screen) (PIK3R1-N (Homo sapiens) [6])?
A: 566 nM

Q: What about the apparent Kd (screen) (PIK3R3-N (Homo sapiens) [7]) of the same substance?
A: 999 nM

Q: And the apparent Kd (screen) (PIK3R1-C (Homo sapiens))?
A: 999 nM

Q: And the apparent Kd (screen) (SHC1-PTB (Homo sapiens))?
A: 2000 nM

Q: What about the apparent Kd (screen) (PIK3R3-NC (Homo sapiens) [8]) of the same substance?
A: 50 nM

Q: What about the apparent Kd (screen) (PIK3R2-NC (Homo sapiens) [9]) of the same substance?
A: 88 nM

Q: What about the apparent Kd (screen) (ITK (Homo sapiens) [10]) of the same substance?
A: 1670 nM

Q: And the apparent Kd (screen) (PIK3R2-N (Homo sapiens) [11])?
A: 893 nM

Q: And the apparent Kd (screen) (PIK3R3-NC (Homo sapiens) [12])?
A: 492 nM

Q: And the apparent Kd (screen) (PIK3R2-N (Homo sapiens) [13])?
A: 999 nM

Q: With …pYEYMNRRR as the substance, how does the apparent Kd (screen) (ITK (Homo sapiens) [14]) read?
A: 155 nM

Q: What about the apparent Kd (screen) (PIK3R1-N (Homo sapiens) [15]) of the same substance?
A: 674 nM

Q: And the apparent Kd (screen) (SYK-NC (Homo sapiens) [16])?
A: 1260 nM

Q: And the apparent Kd (screen) (SRC (Homo sapiens))?
A: 866 nM

Q: And the apparent Kd (screen) (PIK3R3-NC (Homo sapiens) [17])?
A: 499 nM

Q: What about the apparent Kd (screen) (TENC1 (Homo sapiens) [18]) of the same substance?
A: 1800 nM

Q: What about the apparent Kd (screen) (RASA1-N (Homo sapiens) [19]) of the same substance?
A: 516 nM

Q: And the apparent Kd (screen) (FGR (Homo sapiens))?
A: 709 nM

Q: What about the apparent Kd (screen) (LYN (Homo sapiens)) of the same substance?
A: 1070 nM

Q: And the apparent Kd (screen) (ABL2 (Homo sapiens) [20])?
A: 1110 nM

Q: What about the apparent Kd (screen) (GRB7 (Homo sapiens) [21]) of the same substance?
A: 99 nM

Q: And the apparent Kd (screen) (YES1 (Homo sapiens))?
A: 125 nM

Q: What about the apparent Kd (screen) (PIK3R2-NC (Homo sapiens) [22]) of the same substance?
A: 257 nM

Q: And the apparent Kd (screen) (ABL1 (Homo sapiens))?
A: 1420 nM

Q: What about the apparent Kd (screen) (PIK3R1-NC (Homo sapiens) [23]) of the same substance?
A: 499 nM

Q: What about the apparent Kd (screen) (PIK3R2-N (Homo sapiens) [24]) of the same substance?
A: 143 nM

Q: What about the apparent Kd (screen) (RASA1-N (Homo sapiens) [25]) of the same substance?
A: 929 nM

Q: And the apparent Kd (screen) (PIK3R1-N (Homo sapiens) [26])?
A: 347 nM

Q: And the apparent Kd (screen) (PIK3R3-N (Homo sapiens) [27])?
A: 201 nM

Q: And the apparent Kd (screen) (PIK3R1-NC (Homo sapiens) [28])?
A: 254 nM

Q: What about the apparent Kd (screen) (SYK-NC (Homo sapiens) [29]) of the same substance?
A: 894 nM

Q: What about the apparent Kd (screen) (PIK3R3-N (Homo sapiens) [30]) of the same substance?
A: 281 nM

Q: And the apparent Kd (screen) (GRB7 (Homo sapiens) [31])?
A: 125 nM

Q: What about the apparent Kd (screen) (TENC1 (Homo sapiens) [32]) of the same substance?
A: 1630 nM

Q: What about the apparent Kd (screen) (PIK3R3-NC (Homo sapiens) [33]) of the same substance?
A: 256 nM

Q: What about the apparent Kd (screen) (BLK (Homo sapiens)) of the same substance?
A: 68 nM

Q: And the apparent Kd (screen) (PLCG2-NC (Homo sapiens))?
A: 614 nM

Q: And the apparent Kd (screen) (PIK3R2-NC (Homo sapiens) [34])?
A: 448 nM

Q: What about the apparent Kd (screen) (PIK3R2-N (Homo sapiens) [35]) of the same substance?
A: 239 nM
